Where “and” joins values, the source holds several entries; their conditions need not be identical. Equal entries are not always repeated.
System: Bacillus subtilis DB104 (SP-AmyQ fusion secretion)
Assay: AmyQ secretion efficiency, weighted average sort bin (1 = best secretion, 10 = worst) (bin number (weighted average, 1-10)); higher = lower secretion efficiency
Outline: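 B. subtilis DB104 library expressing mature AmyQ fused to designed signal peptides (amyE-integrated) was encapsulated at about 0.3 cells per ~65 nL alginate bead with fluorescein-starch, grown about 13 h at room temperature and nile red stained. Occupied beads were sorted by large-particle flow cytometry into 10 equally populated bins by green/red fluorescence ratio, and each bin's amplicons were Illumina-sequenced. Secretion score is the read-frequency-weighted average bin number, normalised to beads per bin, excluding low-abundance sequences.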

Sequence | AmyQ secretion efficiency
MKKKQQHSTRRKLIVLLFFSFFGVQPIHAKKQ | 5.23
MKKKQQRLALTAAAGLGLTALHSAPAAKAAPL | 5.39
MKKKQRAGLTASAIVGTTLVVTPAEAATI | 6.45
MKKKQVLALTAAAGLGLTALHSAPAAKAAPL | 2.4
MKKKQVMGYTTAAAGLGLTALHSAPAAKAAPL | 7.28
MKKKQVMLALTAAAGLGLTAHSAPAAKAAPL | 2.01
MKKKQVMLALTAAAGLGLTALAIVSSFVHSAPAAKAAPL | 5.73
MKKKQVMLALTAAAGLGLTALGSAPAAKAAPL | 2.2
MKKKQVMLALTAAAGLGLTALHAKAAPL | 2.9
MKKKQVMLALTAAAGLGLTALHDAPAAKAAPL | 2.66
MKKKQVMLALTAAAGLGLTALHKRPAAKAAPL | 6.71
MKKKQVMLALTAAAGLGLTALHPGPSAKAAPL | 1.84
MKKKQVMLALTAAAGLGLTALHSAPAAKAADD | 3.53
MKKKQVMLALTAAAGLGLTALHSAPAAKAAPD | 2.15
MKKKQVMLALTAAAGLGLTALHSAPAAKAAPK | 1.55
MKKKQVMLALTAAAGLGLTALHSAPAAKADDD | 5.2
MKKKQVMLALTAAAGLGLTALHSAPAAKEAPL | 6.66
MKKKQVMLALTAAAGLGLTALHSAPAAKGAPL | 3.51
MKKKQVMLALTAAAGLGLTALHSAPAAKHAPL | 4.9
MKKKQVMLALTAAAGLGLTALHSAPAAKIAPL | 6.05
MKKKQVMLALTAAAGLGLTALHSAPAAKLAPL | 4.96
MKKKQVMLALTAAAGLGLTALHSAPAAKPAPL | 4.99
MKKKQVMLALTAAAGLGLTALHSAPAAKQAPL | 4.93
MKKKQVMLALTAAAGLGLTALHSAPAAKSAPL | 3.28
MKKKQVMLALTAAAGLGLTALHSAPAAKVAPL | 6.92
MKKKQVMLALTAAAGLGLTALHSAPACKAAPL | 2.29

Sequence | AmyQ secretion efficiency
MKKKQVMLALTAAAGLGLTALHSAPADKAAPL | 5.48
MKKKQVMLALTAAAGLGLTALHSAPAEKAAPL | 6.32
MKKKQVMLALTAAAGLGLTALHSAPAFKAAPL | 6.7
MKKKQVMLALTAAAGLGLTALHSAPAGKAAPL | 5.58
MKKKQVMLALTAAAGLGLTALHSAPAHKAAPL | 6.85
MKKKQVMLALTAAAGLGLTALHSAPAIKAAPL | 4.18
MKKKQVMLALTAAAGLGLTALHSAPAKKAAPL | 5.87
MKKKQVMLALTAAAGLGLTALHSAPALKAAPL | 4.89
MKKKQVMLALTAAAGLGLTALHSAPANKAAPL | 5.6
MKKKQVMLALTAAAGLGLTALHSAPAPKAAPL | 6.78
MKKKQVMLALTAAAGLGLTALHSAPAQKAAPL | 5.43
MKKKQVMLALTAAAGLGLTALHSAPARKAAPL | 5.26
MKKKQVMLALTAAAGLGLTALHSAPASKAAPL | 4.06
MKKKQVMLALTAAAGLGLTALHSAPASVVAVAASAKAAPL | 1.02
MKKKQVMLALTAAAGLGLTALHSAPATKAAPL | 3.15
MKKKQVMLALTAAAGLGLTALHSAPAVAGAAKAAPL | 2.43
MKKKQVMLALTAAAGLGLTALHSAPAVKAAPL | 1.99
MKKKQVMLALTAAAGLGLTALKHKKKKAKAAPL | 6.6
MKKKQVMLALTAAAGLGLTALVFFHSAPAAKAAPL | 2.39
MKKKQVMLALTAAAGLHSAPAAKAAPL | 3.17
MKKKQVMLKRKKKKGLGLTALHSAPAAKAAPL | 8.05
MKKKQVMLKRTAAAGLGLTALHSAPAAKAAPL | 6.55
MKKKQVMLRKKKAAGLGLTALHSAPAAKAAPL | 7.14
MKKKQVMTLNSSLALTAAAGLGLTALHSAPAAKAAPL | 4.06
MKKKQVSHAIIISVMLSFVIAVFHTIHASERKR | 7.08
MKKKQVSHAIIISVMLSFVIAVFHTIHASYLTP | 6.98

Sequence | AmyQ secretion efficiency
MKKKQVSHAIIISVMLSFVIAVFHTIHKSELTP | 4.63
MKKKQVSHAIIISVMLSFVIAVFRRHRKHASELTP | 7.4
MKKKQVSHARSTKTRRQFVIAVFHTIHASELTP | 8.17
MKKKRALTLCPAIVGSLLFFTAPASAHVS | 3.92
MKKKRKKFVAVAALSTTAFGAHASAKEI | 6.1
MKKKRKKGGTGSAIVGTTLVVTPAEAATI | 7.88
MKKKRKKIAGVLTVAAAAMTAKMYATAKGN | 7.67
MKKKRKRLAAGLTASAIVGTTLVVTPAEAATI | 2.55
MKKKRLAAGLTASAIVGTTLVVTPAEAATI | 4.26 and 3.28
MKKKRLFIFSAILTLSIFAPNETFAQTA | 2.43
MKKKRLLAGALTATVLFGTCAVDVPGIISPKTAEAASQ | 1.66
MKKKRLLLATSALTFSLSLVLPLDGHAKAQEV | 2.9
MKKKRMSFVAVAALSTTAFGAHASAKEI | 4.12
MKKKRRKCSICCAAVLLAGGAAQAEAV | 6.1
MKKKRRKLALTAAAGLGLTALHSAPAAKAAPL | 2.69
MKKKRRRVLMAFIICLSLILSVLAAPPSGAKAESV | 2
MKKKRVMLALTAAAGLGLTALHSAPAAKAAPL | 2.47
MKKKSQQQGGVSAVVGSSMAAAPAEAKTI | 7.9
MKKKSTVFLSVVLVTTVFLVKQQESVAQAKQL | 2.06
MKKKTLSLFVGLMLLIGLLFSGSLPYNPNAAEASSS [wt_amyM] | 3.81
MKKKVKIAGVLTVAAAAMTAKMYATAKGN | 6.8
MKKLAAGLTASAIVGTTLVVTPAEAATI | 2.27
MKKLALTAAAGLGLTALHSAPAAKAAPL | 3.02
MKKLCVMMLLFSAIASFPVSAQAKDQ | 2.86
MKKLFIFSAILTLSIFAPNETFAQTA | 2.72
MKKLILAFILSAAAAVGLFTFGGVQQASAKEL | 4

Sequence | AmyQ secretion efficiency
MKKLILAGIALFVFISPLKSHKT | 5.8
MKKLIMALVILGALGTSYISADSS | 6.77 and 6.15
MKKLIMALVILGALKKRKKKISADSS | 8.07
MKKLIMALVILGALRKRYISADSS | 7.22
MKKLIMMTGLLFGLTSPAFAAEK | 2.43
MKKLIQVMIMFTLLLTMAFSADAADS | 4.44
MKKLIVLLFFSFFGVQPIHAKKQ | 5.47
MKKLKRKKVILGALGTSYISADSS | 7.53
MKKLLAAGIIGLLTVEDDEDDSFAAEK | 8.23
MKKLLAAGIIGLLTVEEESPSFAAEK | 6.63
MKKLLAAGIIGLLTVFIAVPSFAAEK | 2.33
MKKLLAAGIIGLLTVQTDQPSFAAEK | 4.21
MKKLLAAGIIGLLTVRKKSPSFAAEK | 8.11
MKKLLAAGIIGLLTVRRRKKKSFAAEK | 7.21
MKKLLAAGIIGLLTVSIASPAFAAEK | 2.44
MKKLLAAGIIGLLTVSIASPCFAAEK | 2.42
MKKLLAAGIIGLLTVSIASPGFAAEK | 2.84
MKKLLAAGIIGLLTVSIASPGFVFSFAAEK | 8.62
MKKLLAAGIIGLLTVSIASPHFAAEK | 7.4
MKKLLAAGIIGLLTVSIASPIFAAEK | 1.99
MKKLLAAGIIGLLTVSIASPLFAAEK | 3.02
MKKLLAAGIIGLLTVSIASPMFAAEK | 3.35
MKKLLAAGIIGLLTVSIASPNFAAEK | 5.52
MKKLLAAGIIGLLTVSIASPQFAAEK | 6.75
MKKLLAAGIIGLLTVSIASPSFAADD | 2.83
MKKLLAAGIIGLLTVSIASPSFAASC | 1.59

Sequence | AmyQ secretion efficiency
MKKLLAAGIIGLLTVSIASPSFAASD | 2.22
MKKLLAAGIIGLLTVSIASPSFARRK | 6.83
MKKLLAAGIIGLLTVSIASPSFEAEK | 6.63
MKKLLAAGIIGLLTVSIASPSFGAEK | 4.39
MKKLLAAGIIGLLTVSIASPSFHAEK | 6.26
MKKLLAAGIIGLLTVSIASPSFKAEK | 5.02
MKKLLAAGIIGLLTVSIASPSFLAEK | 5.65
MKKLLAAGIIGLLTVSIASPSFPAEK | 7.88
MKKLLAAGIIGLLTVSIASPSFQAEK | 7.82
MKKLLAAGIIGLLTVSIASPSFRAEK | 7.12
MKKLLAAGIIGLLTVSIASPSFSAEK | 3.02
MKKLLAAGIIGLLTVSIASPSFTAEK | 6.63
MKKLLAAGIIGLLTVSIASPSFVAEK | 6.79
MKKLLAAGIIGLLTVSIASPSFWAEK | 7.9
MKKLLAAGIIGLLTVSIASPSFYAEK | 7.71
MKKLLAAGIIGLLTVSIASPTFAAEK | 2.52
MKKLLAAGIIGLLTVSIASPVFAAEK | 2.43
MKKLLAAGIIGLLTVSIASPWFAAEK | 7.98
MKKLLAAGIIGLLTVSIASPYFAAEK | 6.19
MKKLLAAGIIGLLTVSSFAAEK | 6.74
MKKLLAAGIIGLLTVTLVFLVVLLSIASPSFAAEK | 2.43
MKKLLAAGIIGLLTVTSIASPSFAAEK | 2.48
MKKLLAAGIIGLLTVTVFVTSIASPSFAAEK | 2.51
